Measured values from US20240279281A1, “Peptide Inhibitors of Interleukin-23 Receptor” (Janssen Pharmaceutica NV, priority 2023, published 2024).
Blank lines part the entries; values can stand above or below the binder they belong to. Starred links: 1 amine or outer side, 2 acyl side, 3 side chain; linkers in the order of their positions; H or OH if unused. Positions of bridges follow the written chain, without caps; N, C: chain ends. Non-standard residues stand in square brackets, D forms with d. Groups on a side chain read outwards from the residue. Primed or numbered codes have the meaning given here. TMAPF = 5-(4-(2-amino-2-carboxyethyl)phenoxy)-N,N,N-trimethylpentan-1-aminium, C[N+](C)(C)CCCCCOc1ccc(C[C@H](N[*:1])C(=O)[*:2])cc1; 6Br2Nal = 2-amino-3-(6-bromonaphthalen-2-yl)propanoic acid, O=C([C@H](Cc1ccc2cc(Br)ccc2c1)N[*:1])[*:2]; 6F2Nal = 2-amino-3-(6-fluoronaphthalen-2-yl)propanoic acid, O=C([C@H](Cc1ccc2cc(F)ccc2c1)N[*:1])[*:2]; Trp(7-(3-AcNH-Ph)) = CC(=O)Nc1cccc(-c2cccc3c(C[C@H](N)C(=O)O)c[nH]c23)c1; PEG2NMePEG2NMegENMeCl8Tetrazole = not defined here; 2Nal(6-OH) = N[C@@H](Cc1ccc2cc(O)ccc2c1)C(=O)O; Trp(7-Me) = Cc1cccc2c(C[C@H](N)C(=O)O)c[nH]c12; γGlu = O=C(O)[C@H](CCC(=O)[*:2])N[*:1]; AEF = NCCOc1ccc(C[C@H](N)C(=O)O)cc1; 3Pal = N[C@@H](Cc1cccnc1)C(=O)O; NMecPEG3a = not defined here; Pen = CC(C)(S)[C@H](N)C(=O)O; PEG2′ = not defined here; Thp = NC1(C(=O)O)CCOCC1; Sar = CNCC(=O)O

Target: T1, interleukin-23 receptor (IL-23R) (UniProt Q5VWK5 24-629, limits assumed)
T1 sequence (looked up): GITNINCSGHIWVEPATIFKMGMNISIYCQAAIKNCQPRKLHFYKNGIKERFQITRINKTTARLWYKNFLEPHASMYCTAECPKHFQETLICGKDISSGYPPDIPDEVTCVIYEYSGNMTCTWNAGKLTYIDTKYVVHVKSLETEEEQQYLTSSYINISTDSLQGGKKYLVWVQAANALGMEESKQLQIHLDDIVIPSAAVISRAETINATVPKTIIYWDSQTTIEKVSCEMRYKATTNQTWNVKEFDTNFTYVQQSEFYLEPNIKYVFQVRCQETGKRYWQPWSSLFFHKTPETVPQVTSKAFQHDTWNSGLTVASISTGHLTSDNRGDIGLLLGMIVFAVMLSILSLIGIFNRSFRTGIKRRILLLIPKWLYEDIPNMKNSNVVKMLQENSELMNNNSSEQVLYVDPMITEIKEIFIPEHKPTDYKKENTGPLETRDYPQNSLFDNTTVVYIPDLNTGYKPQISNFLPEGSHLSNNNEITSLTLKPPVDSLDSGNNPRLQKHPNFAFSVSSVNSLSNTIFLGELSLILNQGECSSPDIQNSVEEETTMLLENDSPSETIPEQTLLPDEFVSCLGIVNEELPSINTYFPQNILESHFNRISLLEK
Assay: cell-based or functional assay

Binder: Ac-[dR][Pen]NT[Trp(7-(3-AcNH-Ph))]K(Ac)[Pen][AEF][2Nal(6-OH)][Thp]EN[3Pal][Sar]-NH2 (disulfide 2-7 (inferred)) [SEQ ID NO: 287]
PBMC pSTAT3 IC50: < 0.1 nM

Binder: Ac-[dR][Pen]NT[Trp(7-Me)]K(Ac)[Pen][AEF][2Nal(6-OH)][Thp]EN[3Pal][Sar]K([PEG2′-PEG2′-γGlu-C18OH])-NH2 (disulfide 2-7 (inferred)) [SEQ ID NO: 282]
PBMC pSTAT3 IC50: < 1 nM

B2: SEQ ID NO: 319 (peptide)
peptide: cPEG3aCO-[Pen]NT[Trp(7-Me)]K(NMecPEG3a)[Pen][AEF][2Nal(6-OH)][Thp]EN[3Pal][Sar]-NH2
modifications: disulfide 1-6 (inferred); not fully specified; printed as cPEG3aCO-Pen(3)-N-T-7MeW-K(NMecPEG3a)-Pen(3)-AEF-6OH2Nal-THP-E-N-3Pya-Sar-CONH2; reading uncertain
PBMC pSTAT3 IC50: < 0.1 nM

Binder: Ac-[Pen]NT[Trp(7-Me)]K(Ac)[Pen][AEF][2Nal(6-OH)][Thp]K([PEG2′-PEG2′-γGlu-C18OH])N[3Pal][Sar]-NH2 (disulfide 1-6 (inferred)) [SEQ ID NO: 273]
PBMC pSTAT3 IC50: < 0.1 nM

Binder: Ac-[dR][Pen]NT[Trp(7-Me)]K(Ac)[Pen][AEF][2Nal(6-OH)][Thp]EN[3Pal][Sar]K(PEG2NMePEG2NMegENMeCl8Tetrazole)-NH2 (disulfide 2-7 (inferred); reading uncertain) [SEQ ID NO: 115]
PBMC pSTAT3 IC50: < 1 nM

Results, then the binder that gave them:

PBMC pSTAT3 IC50: < 0.01 nM
Binder: Ac-[Pen]NT[Trp(7-Me)]K(Ac)[Pen][AEF][2Nal(6-OH)][Thp]EN[3Pal][Sar]-NH2 (disulfide 1-6 (inferred)) [SEQ ID NO: 428]

PBMC pSTAT3 IC50: < 0.01 nM
B1: SEQ ID NO: 349 (peptide)
peptide: Ac-X[Pen]NT[Trp(7-Me)]K(Ac)[Pen][AEF][2Nal(6-OH)][Thp]EN[3Pal][Sar]-NH2
modifications: disulfide 2-7 (inferred); not fully specified (residue 1); printed as MeCO-k(d)-Pen(3)-N-T-7MeW-K(Ac)-Pen(3)-AEF-6OH2Nal-THP-E-N-3Pya-Sar-CONH2

PBMC pSTAT3 IC50: < 0.1 nM
Binder: Ac-[dR][Pen]NT[Trp(7-Me)]K(Ac)[Pen][AEF][6F2Nal][Thp]EN[3Pal][Sar]-NH2 (disulfide 2-7 (inferred)) [SEQ ID NO: 407]

PBMC pSTAT3 IC50: < 0.01 nM
Binder: Ac-[dR][Pen]NT[Trp(7-Me)]K(Ac)[Pen][AEF][2Nal(6-OH)][Thp]EN[3Pal][Sar]-NH2 (disulfide 2-7 (inferred)) [SEQ ID NO: 442]

PBMC pSTAT3 IC50: > 1 nM
Binder: Ac-[dR][Pen]NT[Trp(7-Me)]K(Ac)[Pen][AEF][6Br2Nal][Thp]EN[Thp]-NH2 (disulfide 2-7 (inferred)) [SEQ ID NO: 444]

PBMC pSTAT3 IC50: < 1 nM
Binder: Ac-[Pen]NT[Trp(7-Me)]K(Ac)[Pen][AEF][2Nal(6-OH)][Thp]EN[3Pal][Sar]K([PEG2′-PEG2′-γGlu-C18OH])-NH2 (disulfide 1-6 (inferred)) [SEQ ID NO: 283]

PBMC pSTAT3 IC50: < 0.1 nM
Binder: Ac-[dR][Pen]NT[Trp(7-Me)]K(Ac)[Pen][TMAPF][2Nal(6-OH)][Thp]EN[3Pal][Sar]-NH2 (disulfide 2-7 (inferred)) [SEQ ID NO: 59]
